This note sets out measurements from patent US20210403582A1 (JACOBIO PHARMACEUTICALS, published 2021).

Read-outs that look alike come from different tables or passages of the source.

Test [1] addresses T1, human LIF protein (human, UniProt P15018 23-202).
T1 construct: Bought recombinant protein (Sino Biological / Yiqiao Shenzhou 14890-HNAH) in most assays; also called recombinant human LIF protein; rhLIF
In words: ELISA, human LIF coated at 1 µg/mL, A450. The method, then: (§1) The recombinant human LIF protein was diluted to 1 μg/mL, was coated on the enzyme label plate, 100 μL of the protein was added into every well, and incubated overnight in 4° C. The enzyme label plates were taken out next day, and the liquid was discarded, and were washed with PBST three times and blocked with 2% BSA in PBS for 1 h at room temperature, then washed with PBST three times, and added anti-human LIF antibodies 38E10E1C11, 5D8 and P36-033 at different concentrations and incubated for 1 h at room temperature. The liquid was discarded, and the plates were washed with PBST four times. The plates were added with HRP-labeled goat anti-mouse Fab antibody or goat anti-human FC antibody and incubated for 1 h at room temperature. Then the liquid was discarded, and the plates were washed four times with PBST and incubated with TMB colored solution in 10 minutes at room temperature. Stop color development by adding 2 mol/L H₂SO₄, and the absorption value at 450 nm is quantitated using an automated plate photometer, and the results were shown in FIG. 1.
For orientation: ELISA stands for enzyme-linked immunosorbent assay.

Test [2] has as its target T1, human LIF protein. The experiment in a line: ELISA, human LIF coated at 1 µg/mL, A450. The method, then:
as §1
The source holds these as a separate data set.

Test [3] deals with T2, recombinant mouse LIF protein (mouse, UniProt P09056 24-203). The experiment in a line: ELISA, mouse LIF coated at 1 µg/mL, A450. On the procedure:
(§2) The recombinant mouse LIF protein (purchased from ACRO Biosystems) was diluted to 1 μg/mL, and was coated on the enzyme label plate, 100 μL of protein was added into every well, and incubated overnight in 4° C. The enzyme label plates were taken out next day, and the liquid was discarded, and were washed with PBST three times and blocked with 2% BSA in PBS for 1 h at room temperature, then washed with PBST three times, and added anti-human LIF antibodies 38E10E1C11, 5D8 and P36-033 at different concentrations and incubated for 1 h at room temperature. The liquid was discarded, and the plates were washed with PBST four times. The plates were added with HRP-labeled goat anti-mouse Fab antibody or goat anti-human FC antibody and incubated for 1 h at room temperature. Then the liquid was discarded, and the plates were washed four times with PBST and incubated with TMB colored solution in 10 minutes at room temperature. Stop color development by adding 2 mol/L H₂SO₄, and the absorption value at 450 nm is quantitated using an automated plate photometer, and the results were shown in FIG. 2.

The target in test [4] is T2, recombinant mouse LIF protein. The experiment in a line: ELISA, mouse LIF coated at 1 µg/mL, A450. On the procedure: as §2
The source holds these as a separate data set.

The target in a further test is T3, human OSM (human, UniProt P13725 26-221, limits assumed).
T3 sequence (looked up): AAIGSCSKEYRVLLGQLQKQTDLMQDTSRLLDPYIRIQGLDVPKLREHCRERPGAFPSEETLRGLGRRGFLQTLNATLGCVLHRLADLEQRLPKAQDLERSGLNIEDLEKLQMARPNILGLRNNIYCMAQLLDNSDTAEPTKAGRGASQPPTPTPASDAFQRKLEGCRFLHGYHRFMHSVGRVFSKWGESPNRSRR
In words: ELISA, human OSM coated at 1 µg/mL, A450, bar chart of eight antibody concentrations. The method, then:
(§3) The human LIF, human IL-6, human OSM, human CNTF (purchased from Sino biological) were coated on the enzyme label plate at a concentration of 1 μg/mL separately, and the anti-human LIF antibodies 38E10E1C11, P36-033 and 5D8 at different concentrations were added separately and incubated for 1 h at room temperature. Then the plates were washed four times with PBST and incubated with HRP-labeled goat anti-mouse FC secondary antibody for 1 h at room temperature. Then the plates were washed four times with PBST and added with TMB colored solution for color development at room temperature for 10 minutes. The absorption value at 450 nm is quantitated by the enzyme-labeling measuring instrument, and the data was analyzed and plotted using Origin pro 9 software.

The next test concerns the target T4, human CNTF (human, UniProt P26441 1-200, limits assumed).
T4 sequence (looked up): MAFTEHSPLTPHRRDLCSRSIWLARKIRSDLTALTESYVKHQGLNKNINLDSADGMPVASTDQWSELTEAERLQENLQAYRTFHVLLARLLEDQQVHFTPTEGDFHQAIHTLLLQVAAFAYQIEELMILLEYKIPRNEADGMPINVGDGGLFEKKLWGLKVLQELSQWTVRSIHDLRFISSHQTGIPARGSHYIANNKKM
In words: ELISA, human CNTF coated at 1 µg/mL, A450, bar chart of eight antibody concentrations. On the procedure: as §3

In test [5] the target is T1, human LIF protein. The experiment in a line: cell-based or functional assay.
Test [6] concerns the target T1, human LIF protein. In words: BLI (Gator), antibody on anti-human Fc biosensor, human LIF in solution. On the procedure: The affinity of anti-LIF antibody to human LIF protein was determined using Gator. The anti-human LIF antibody was first diluted to 5 ug/mL with PBS and then added to A-F wells in second column of the 96-well plate (200 μL per well). […] PBS was added to A-F wells in the first and third columns (200 μL per well). The 96-well plates were placed into the instrument and detected with anti-human Fc biosensor.

In test [7] the target is T1, human LIF protein. In words: ELISA, antigen coated 0.5 ug/ml, 293S supernatant non-heated, antibody 1 ug/mL. On the procedure: (§4) Each well was coated with 100 μL of 0.5 μg/ml antigen and incubate overnight at 4° C., and the plates were washed three times with 300 μL of Wash Buffer. The plates were closed with 200 μL of Closure Buffer (2% bovine serum albumin) for 60 min at room temperature. The plates were washed three times with 300 μL of Wash Buffer. 100 μL of diluted anti-LIF antibody at different concentrations was added to each well and incubate for 1 hour at room temperature. The plates were washed 4 times with 300 μL of Wash Buffer. 100 μL of HRP-labeled goat anti-human Fc secondary antibody at a dilution of 1:5000 was added and incubate for 1 hour at room temperature. The plates were washed 6 times with 300 μL of Wash Buffer. 100 μL of H₂O₂-Amplx Color Development Solution was added for developing the color for 10 min at room temperature under dark conditions. The OD 450 value was read by an enzyme marker. Heat treatment: the expression medium was heated on the PCR machine at 70° C. for 5 min and then rapidly cooled to room temperature. Perform subsequent ELISA assays as above.

Test [8] has as its target T1, human LIF protein. The experiment in a line: ELISA, antigen coated 0.5 ug/ml, 293S supernatant non-heated, antibody 0.2 ug/mL. The method, then: as §4
In test [9] the target is T1, human LIF protein. The experiment in a line: ELISA, antigen coated 0.5 ug/ml, 293S supernatant non-heated, antibody 0.04 ug/mL. The method, then:
as §4

Test [10] has as its target T1, human LIF protein. In words: ELISA, antigen coated 0.5 ug/ml, 293S supernatant heated 70 C 5 min, antibody 1 ug/mL. On the procedure:
as §4

Test [11] concerns the target T1, human LIF protein. The experiment in a line: ELISA, antigen coated 0.5 ug/ml, 293S supernatant heated 70 C 5 min, antibody 0.2 ug/mL. The method, then: as §4
In test [12] the target is T1, human LIF protein. In words: ELISA, antigen coated 0.5 ug/ml, 293S supernatant heated 70 C 5 min, antibody 0.04 ug/mL. On the procedure: as §4
The target of test [13] is T5, Mut3 heterozygous LIF protein (human LIF with residues 182-202 of …, UniProt P15018 23-201, limits assumed).
T5 construct: Secreted into the supernatant of transfected 293T cells; also called Mut3 protein
In words: western blot of 293T culture supernatants, primary antibody 1 µg/mL, HRP anti-human Fc. The method, then: (§5) The supernatant of 293T cells transfected with human LIF full-length gene sequence, Mut3 and Mut4 protein sequences after 3 days of culture, and the negative control of 293T cell culture supernatant were taken, 5×SDS-PAGE loading buffer was added, and boiled for 10 minutes. Then 10 μL of sample was taken for SDS-PAGE electrophoresis, and then the electrophoretic bands were transferred to PVDF membrane for western blot detection. The primary antibody for detection was 38E huH3L2 or 38E huH3L4 antibody at a concentration of 1 μg/mL, and was incubated for 2 hours at room temperature. Then washed three times in PBST buffer and diluted HRP-labeled sheep anti-human Fc secondary antibody at a dilution ration of 1:3000 was added, incubated with the secondary antibody for 2 hours at room temperature, washed three times in PBST buffer and enhanced Chemiluminescent solution (Perice, item no. 34079) was added and incubated. An Amersham Imager 600 ultra-sensitive multifunctional imager was used for detection and photograph. […] The same results were obtained in the M1 cell proliferation assay, and the results were detailed in subfigure B in FIG. 22. Therefore, the epitope sequences recognized by the 38E huH3L2 and 38E huH3L4 antibodies were determined to be […] (SEQ ID NO: 61).
On the technique in general: A western blot detects proteins with antibodies after separation by electrophoresis.

The target of test [14] is T6, Mut4 heterozygous LIF protein (human LIF with residues 166-202 of …, UniProt P15018 23-201, limits assumed).
T6 construct: Secreted into the supernatant of transfected 293T cells; also called Mut4 protein
Described as above. The method, then:
as §5

B1: 5D8 antibody (positive control) (antibody, human IgG1, kappa, V domains shown)
VH: QVQLQESGGGLVKPGGSLRLSCAASGFTFSHAWMHWVRQAPGKGLEWVGQIKAKSDDYATYYAESVKGRFTISRDDSKNTLYLQMNSLKTEDTAVYYCTCWEWDLDFWGQGTMVTVSS
VL: DIVMTQTPLSSPVTLGQPASISCRSSQSLLDSDGHTYLNWLQQRPGQPPRLLIYSVSNLESGVPDRFSGSGAGTDFTLKISRVEAEDVGVYYCMQATHAPPYTFGQGTKLEIKR
Usually EC50 (read off the curve) stands for the concentration at which the effect is half-maximal. As for B1, the “EC50 (read off the curve)” value with human LIF protein [1] was ~0.2 µg/mL; with human LIF protein [2] it was ~0.8 µg/mL; in [3], ~0.3 µg/mL; in test [4], ~0.4 µg/mL. Besides, the binding result with human OSM and with human CNTF was “binds” in each case.

B2: 38E HuH3L4 (antibody, human IgG1, kappa, N297A)
heavy: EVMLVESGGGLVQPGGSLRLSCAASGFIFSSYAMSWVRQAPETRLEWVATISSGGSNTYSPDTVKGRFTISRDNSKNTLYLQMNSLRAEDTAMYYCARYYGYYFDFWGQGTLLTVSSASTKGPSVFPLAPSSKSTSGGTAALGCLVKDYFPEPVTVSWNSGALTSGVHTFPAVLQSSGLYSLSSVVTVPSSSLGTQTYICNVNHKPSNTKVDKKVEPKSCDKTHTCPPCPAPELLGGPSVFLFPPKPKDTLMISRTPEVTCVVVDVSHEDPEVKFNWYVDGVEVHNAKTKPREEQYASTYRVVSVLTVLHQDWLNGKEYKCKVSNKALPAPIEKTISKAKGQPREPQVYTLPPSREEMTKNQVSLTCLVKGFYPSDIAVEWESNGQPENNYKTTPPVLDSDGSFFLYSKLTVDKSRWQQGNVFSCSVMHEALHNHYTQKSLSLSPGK
light: DIHMTQSPSSLSASVGDRVTITCRASENIYSYLAWYQQKQGKSPQLLVYNAKTLAEGVPSRFSGSGSGTQFTLKINSLQPEDFATYYCQHHYVTPLTFGQGTKLEIKRTVAAPSVFIFPPSDEQLKSGTASVVCLLNNFYPREAKVQWKVDNALQSGNSQESVTEQDSKDSTYSLSSTLTLSKADYEKHKVYACEVTHQGLSSPVTKSFNRGEC
notes: Humanized, human IgG1 / kappa
The Kd is the constant that tells how readily two partners part at equilibrium. Low readings indicate higher affinity, high ones lower affinity. A word on the koff: it is the rate constant with which the complex falls apart. A high value points to a short-lived complex. For orientation: kon means a measure of how fast the partners come together. A lower kon goes with slower complex formation. For B2, in the test with human LIF protein [5], the “IC50, P-STAT3 (TYR705) in KP4 cells, HTRF kit” value came out at 3.42 nM. In the test with human LIF protein [6], this molecule came in with a Kd of 0.0766 nM. The koff in the test with human LIF protein [6] turned out to be 4.44e-05 s⁻¹. For the same molecule, the kon with human LIF protein [6] turned out to be 579000 M⁻¹ s⁻¹. In addition, the ELISA signal with human LIF protein [7] turned out to be 11900; with human LIF protein [8], 11200; with human LIF protein [9], 7060; in the test with human LIF protein [10], 9950; in the test with human LIF protein [11] it was 9060; in the test with human LIF protein [12] it was 5300. Besides, the binding result is “binds” in [13] and “no binding (tested: primary antibody 1 µg/mL)” in [14].
